B1: PU.1 motif oligo 1 (dsDNA)
DNA 1: ACGTCACTTCCTCTTTACGT
DNA 2: ACGTAAAGAGGAAGTGACGT
B2: PU.1 motif oligo 2 (dsDNA)
DNA 1: ACGTCACTTCCTCATTACGT
DNA 2: ACGTAATGAGGAAGTGACGT
B3: PU.1 motif oligo 11 (dsDNA)
DNA 1: ACGTCACTTCCTCAAAACGT
DNA 2: ACGTTTTGAGGAAGTGACGT
B4: PU.1 motif oligo 12 (dsDNA)
DNA 1: ACGTCACTTCCTTTCTACGT
DNA 2: ACGTAGAAAGGAAGTGACGT
B5: PU.1 motif oligo 13 (dsDNA)
DNA 1: ACGTCACTTCCTCTACACGT
DNA 2: ACGTGTAGAGGAAGTGACGT
B6: PU.1 motif oligo 14 (dsDNA)
DNA 1: ACGTCACTTCCTCTGTACGT
DNA 2: ACGTACAGAGGAAGTGACGT
B7: PU.1 motif oligo 15 (dsDNA)
DNA 1: ACGTGACTTCCTCTCTACGT
DNA 2: ACGTAGAGAGGAAGTCACGT
B8: PU.1 motif oligo 16 (dsDNA)
DNA 1: ACGTAACTTCCTCATAACGT
DNA 2: ACGTTATGAGGAAGTTACGT
B9: PU.1 motif oligo 17 (dsDNA)
DNA 1: ACGTCACTTCCTCCCTACGT
DNA 2: ACGTAGGGAGGAAGTGACGT
B10: PU.1 motif oligo 18 (dsDNA)
DNA 1: ACGTCACTTCCTCAACACGT
DNA 2: ACGTGTTGAGGAAGTGACGT
B11: PU.1 motif oligo 19 (dsDNA)
DNA 1: ACGTCAGTTCCTCTTCACGT
DNA 2: ACGTGAAGAGGAACTGACGT
B12: PU.1 motif oligo 20 (dsDNA)
DNA 1: ACGTAACTTCCCCATTACGT
DNA 2: ACGTAATGGGGAAGTTACGT
B13: PU.1 motif oligo 3 (dsDNA)
DNA 1: ACGTCACTTCCCCTTTACGT
DNA 2: ACGTAAAGGGGAAGTGACGT
B14: PU.1 motif oligo 21 (dsDNA)
DNA 1: ACGTGAGTTCCTCTTTACGT
DNA 2: ACGTAAAGAGGAACTCACGT
B15: PU.1 motif oligo 22 (dsDNA)
DNA 1: ACGTGACTTCCTCATCACGT
DNA 2: ACGTGATGAGGAAGTCACGT
B16: PU.1 motif oligo 23 (dsDNA)
DNA 1: ACGTCACTTCCCCAAAACGT
DNA 2: ACGTTTTGGGGAAGTGACGT
B17: PU.1 motif oligo 24 (dsDNA)
DNA 1: ACGTAACTTCCTCAATACGT
DNA 2: ACGTATTGAGGAAGTTACGT
B18: PU.1 motif oligo 25 (dsDNA)
DNA 1: ACGTCACTTCCGCTTCACGT
DNA 2: ACGTGAAGCGGAAGTGACGT
B19: PU.1 motif oligo 26 (dsDNA)
DNA 1: ACGTAAGTTCCTCATTACGT
DNA 2: ACGTAATGAGGAACTTACGT
B20: PU.1 motif oligo 27 (dsDNA)
DNA 1: ACGTCTCTTCCTCTTTACGT
DNA 2: ACGTAAAGAGGAAGAGACGT
B21: PU.1 motif oligo 28 (dsDNA)
DNA 1: ACGTTACTTCCTTTTAACGT
DNA 2: ACGTTAAAAGGAAGTAACGT
B22: PU.1 motif oligo 29 (dsDNA)
DNA 1: ACGTGACTTCCTGTTTACGT
DNA 2: ACGTAAACAGGAAGTCACGT
B23: PU.1 motif oligo 30 (dsDNA)
DNA 1: ACGTCAGTTCCTGTTTACGT
DNA 2: ACGTAAACAGGAACTGACGT

Molecular target: PU.1 (human, UniProt P17947 1-270)
Assay: MST; MST: 20 mM Tris-HCl pH 7.6, 1.5 mM MgCl2, 0.5 mM EGTA, 10% glycerol, 300 mM KCl, 10 mM DTT, 25 C; 50 nM Cy3-dsDNA, PU.1 1:1 dilutions from 23 uM
Conditions: protein: recombinant; tags: N-terminal His-tag; label: Cy3 on upper strand

| Binder | Kd [nM] |
| --- | --- |
| B1 | 164 ± 17 |
| B2 | 272 ± 36 |
| B3 | 242 ± 5 |
| B4 | 588 ± 95 |
| B5 | 568 ± 283 |
| B6 | 658 ± 267 |
| B7 | 324 ± 45 |
| B8 | 444 ± 55 |
| B9 | 470 ± 26 |
| B10 | 452 ± 107 |
| B11 | 596 ± 7 |
| B12 | 234 ± 21 |
| B13 | 454 ± 61 |
| B14 | 298 ± 15 |
| B15 | 532 ± 11 |
| B16 | 362 ± 103 |
| B17 | 462 ± 77 |
| B18 | 613 ± 70 |
| B19 | 490 ± 141 |
| B20 | 719 ± 116 |
| B21 | 422 ± 29 |
| B22 | 361 ± 54 |
| B23 | 558 ± 77 |

Reference: article PMC3711439, “Mechanisms of in vivo binding site selection of the hematopoietic master transcription factor PU.1”
